Laboratory results from paper PMC3947372 (Journal of molecular biology, 2013).

Target: the molecule itself
Assay: crystal structure

B1: NaVAe1p, pore-only sodium channel protein derived from the Alkalilimnicola ehrlichei BacNaV NaVAe1 (domain or fragment)
chain: LLRAIPGIAWIALLLLVIFYVFAVMGTKLFAQSFPEWFGTLGASMYTLFQVMTLESWSMGIARPVIEAYPWAWIYFVSFILVSSFTVLNLFIGIIIESMQSAHWEAEDAKRIEQEQRAHDERLEMLQLIRDLSSKVDRLERRSGKR
- stoichiometry N: 4
